For this test, the target named is KRAS (aa 1–170, Homo sapiens), wild type (Homo sapiens) (UniProt P01116).

Take “RasGAP (aa 722–1056, Homo sapiens) (domain or fragment)”: the GTPase activity of KRAS wild type (GTP hydrolysis over time, HPLC) with 0.25 μM RAS-GAP; at 2.5 μM and 25 μM too fast to be resolved turned out to be 3.5 fold.
